# Columns and labels:
# Parameters in all cases: species or system mice
# [1] = Tissue biodistribution in LnCAP tumor mouse model; settings: male, SCID, in vivo, iv, total radioactivity
# Excerpt: (§1) LnCAP and 22RV1 CDX xenograft tumor models were generated by inoculating 5×10^6 cells/site subcutaneously in male SCID or nude mice (Vital River), respectively. Animals were housed according to IACUC guidance and had accessed to food and water ad libitium. Animals were used for biodistribution study when the tumor dimensions reached around 0.2-0.3 cm^3. […] At each tome point, animals were sacrificed and tissues were collected, weighted, and subjected to radioactivity measurements using gamma counter. Radioactivity in the tissues was presented in % ID/g (percent of injected dose per gram).
# [2] = test system: LnCAP CDX xenograft tumor; test: Tissue biodistribution in LnCAP tumor mouse model; settings: male, SCID, in vivo, iv
# Excerpt: as §1
# [3] = Tissue biodistribution in 22Rv1 tumor mouse model; settings: male, nude, in vivo, iv, total radioactivity
# Excerpt: as §1
# [4] = test system: 22RV1 CDX xenograft tumor; test: Tissue biodistribution in 22Rv1 tumor mouse model; settings: male, nude, in vivo, iv
# Excerpt: as §1
# [5] = T/NT ratio Tumor/Salivary Gland
# [6] = Tissue biodistribution: Salivary Gland
structure (smiles),measurement,setting,value
"O=C(O)CN1CCN(CC(=O)O)CCN(CC(=O)NC23CCC(Nc4c(N[C@@H](Cc5c6ccccc6cc6ccccc56)C(=O)NCCCC[C@H](NC(=O)N[C@@H](CNC(=O)C(=O)O)C(=O)O)C(=O)O)c(=O)c4=O)(CC2)CC3)CCN(CC(=O)O)CC1 [[^177Lu]Lu-E8, metal not drawn]",tissue uptake dose at 2 h,[1],16.4 ± 1.14 %ID
same,tissue uptake dose at 6 h,[1],4.69 ± 0.79 %ID
same,tissue uptake dose at 24 h,[1],3.21 ± 2.01 %ID
same,tissue uptake dose at 72 h,[1],0.99 ± 0.2 %ID
same,tissue uptake dose at 168 h,[1],0.91 ± 0.03 %ID
same,tissue to tissue ratio,[1]; T/NT ratio Tumor/Bone,183
same,tissue to tissue ratio,[1]; [5],220
same,tissue uptake at 2 h,[1]; Tissue biodistribution: Blood,0.87 ± 0.21 %ID/g
same,tissue uptake at 6 h,[1]; Tissue biodistribution: Blood,0.16 ± 0.04 %ID/g
same,tissue uptake at 24 h,[1]; Tissue biodistribution: Blood,0.03 ± 0.01 %ID/g
same,tissue uptake at 72 h,[1]; Tissue biodistribution: Blood,0.03 ± 0.01 %ID/g
same,tissue uptake at 168 h,[1]; Tissue biodistribution: Blood,0.03 ± 0.01 %ID/g
same,tissue uptake at 2 h,[1]; Tissue biodistribution: Bone,0.74 ± 0.16 %ID/g
same,tissue uptake at 6 h,[1]; Tissue biodistribution: Bone,0.33 ± 0.11 %ID/g
same,tissue uptake at 24 h,[1]; Tissue biodistribution: Bone,0.19 ± 0.01 %ID/g
same,tissue uptake at 72 h,[1]; Tissue biodistribution: Bone,0.22 ± 0.02 %ID/g
same,tissue uptake at 168 h,[1]; Tissue biodistribution: Bone,0.26 ± 0.04 %ID/g
same,tissue uptake at 2 h,[1]; Tissue biodistribution: Gland,1.96 ± 0.74 %ID/g
same,tissue uptake at 6 h,[1]; Tissue biodistribution: Gland,0.51 ± 0.1 %ID/g
same,tissue uptake at 24 h,[1]; Tissue biodistribution: Gland,0.18 ± 0.04 %ID/g
same,tissue uptake at 72 h,[1]; Tissue biodistribution: Gland,0.11 ± 0.01 %ID/g
same,tissue uptake at 168 h,[1]; Tissue biodistribution: Gland,0.1 %ID/g
same,tissue uptake at 2 h,[1]; Tissue biodistribution: Heart,1 ± 0.4 %ID/g
same,tissue uptake at 6 h,[1]; Tissue biodistribution: Heart,0.26 ± 0.13 %ID/g
same,tissue uptake at 24 h,[1]; Tissue biodistribution: Heart,0.11 %ID/g
same,tissue uptake at 72 h,[1]; Tissue biodistribution: Heart,0.09 %ID/g
same,tissue uptake at 168 h,[1]; Tissue biodistribution: Heart,0.11 %ID/g
same,tissue uptake at 2 h,[1]; Tissue biodistribution: Kidney,133 ± 12.3 %ID/g
same,tissue uptake at 6 h,[1]; Tissue biodistribution: Kidney,122 ± 20.9 %ID/g
same,tissue uptake at 24 h,[1]; Tissue biodistribution: Kidney,15.7 ± 4.09 %ID/g
same,tissue uptake at 72 h,[1]; Tissue biodistribution: Kidney,1.28 ± 0.08 %ID/g
same,tissue uptake at 168 h,[1]; Tissue biodistribution: Kidney,0.69 ± 0.32 %ID/g
same,tissue uptake at 2 h,[1]; Tissue biodistribution: Liver,0.58 ± 0.17 %ID/g
same,tissue uptake at 6 h,[1]; Tissue biodistribution: Liver,0.33 ± 0.05 %ID/g
same,tissue uptake at 24 h,[1]; Tissue biodistribution: Liver,0.23 ± 0.03 %ID/g
same,tissue uptake at 72 h,[1]; Tissue biodistribution: Liver,0.18 ± 0.02 %ID/g
same,tissue uptake at 168 h,[1]; Tissue biodistribution: Liver,0.15 ± 0.03 %ID/g
same,tissue uptake at 2 h,[1]; Tissue biodistribution: Lung,2.97 ± 0.89 %ID/g
same,tissue uptake at 6 h,[1]; Tissue biodistribution: Lung,0.75 ± 0.14 %ID/g
same,tissue uptake at 24 h,[1]; Tissue biodistribution: Lung,0.18 ± 0.03 %ID/g
same,tissue uptake at 72 h,[1]; Tissue biodistribution: Lung,0.08 ± 0.01 %ID/g
same,tissue uptake at 168 h,[1]; Tissue biodistribution: Lung,0.1 ± 0.04 %ID/g
same,tissue uptake at 2 h,[1]; Tissue biodistribution: Muscle,0.46 ± 0.09 %ID/g
same,tissue uptake at 6 h,[1]; Tissue biodistribution: Muscle,0.14 ± 0.04 %ID/g
same,tissue uptake at 24 h,[1]; Tissue biodistribution: Muscle,0.04 ± 0.01 %ID/g
same,tissue uptake at 72 h,[1]; Tissue biodistribution: Muscle,0.03 %ID/g
same,tissue uptake at 168 h,[1]; Tissue biodistribution: Muscle,0.04 ± 0.01 %ID/g
same,tissue uptake at 2 h,[1]; Tissue biodistribution: Spleen,3.87 ± 1.15 %ID/g
same,tissue uptake at 6 h,[1]; Tissue biodistribution: Spleen,1.05 ± 0.15 %ID/g
same,tissue uptake at 24 h,[1]; Tissue biodistribution: Spleen,0.39 ± 0.14 %ID/g
same,tissue uptake at 72 h,[1]; Tissue biodistribution: Spleen,0.31 ± 0.08 %ID/g
same,tissue uptake at 168 h,[1]; Tissue biodistribution: Spleen,0.43 ± 0.13 %ID/g
same,tissue uptake at 2 h,[1]; Tissue biodistribution: Tumor,30.8 ± 6.34 %ID/g
same,tissue uptake at 6 h,[1]; Tissue biodistribution: Tumor,35.7 ± 5.05 %ID/g
same,tissue uptake at 24 h,[1]; Tissue biodistribution: Tumor,37.9 ± 8.46 %ID/g
same,tissue uptake at 72 h,[1]; Tissue biodistribution: Tumor,48.2 ± 10 %ID/g
same,tissue uptake at 168 h,[1]; Tissue biodistribution: Tumor,44.3 ± 8.77 %ID/g
same,tissue to tissue ratio at 2 h,[1]; Tumor/Blood,38.4 ± 18.7
same,tissue to tissue ratio at 6 h,[1]; Tumor/Blood,237 ± 57.6
same,tissue to tissue ratio at 24 h,[1]; Tumor/Blood,1150 ± 312
same,tissue to tissue ratio at 72 h,[1]; Tumor/Blood,1690 ± 343
same,tissue to tissue ratio at 168 h,[1]; Tumor/Blood,1630 ± 208
same,tissue to tissue ratio at 2 h,[1]; Tumor/Bone,44.7 ± 20.4
same,tissue to tissue ratio at 6 h,[1]; Tumor/Bone,117 ± 45.7
same,tissue to tissue ratio at 24 h,[1]; Tumor/Bone,200 ± 55.6
same,tissue to tissue ratio at 72 h,[1]; Tumor/Bone,223 ± 43.2
same,tissue to tissue ratio at 168 h,[1]; Tumor/Bone,170 ± 19.3
same,tissue to tissue ratio at 2 h,[1]; Tumor/Kidney,0.24 ± 0.07
same,tissue to tissue ratio at 6 h,[1]; Tumor/Kidney,0.3 ± 0.05
same,tissue to tissue ratio at 24 h,[1]; Tumor/Kidney,2.59 ± 1.05
same,tissue to tissue ratio at 72 h,[1]; Tumor/Kidney,37.5 ± 6.4
same,tissue to tissue ratio at 168 h,[1]; Tumor/Kidney,70.9 ± 22.8
same,T/NT ratio Tumor/Bone,[2],169.77
same,T/NT ratio Tumor/Salivary Gland,[2],422.38
same,tissue uptake dose at 2 h,[3],8.22 ± 0.38 %ID
same,tissue uptake dose at 6 h,[3],5.13 ± 0.24 %ID
same,tissue uptake dose at 24 h,[3],2.13 ± 0.07 %ID
same,tissue uptake dose at 72 h,[3],0.81 ± 0.01 %ID
same,tissue uptake dose at 168 h,[3],1.34 ± 0.01 %ID
same,tissue to tissue ratio,[3]; T/NT ratio Tumor/Blood,570
same,tissue to tissue ratio,[3]; [5],201
same,tissue uptake at 2 h,[3]; Tissue biodistribution: Blood,0.4 ± 0.14 %ID/g
same,tissue uptake at 6 h,[3]; Tissue biodistribution: Blood,0.08 ± 0.04 %ID/g
same,tissue uptake at 24 h,[3]; Tissue biodistribution: Blood,0.03 %ID/g
same,tissue uptake at 72 h,[3]; Tissue biodistribution: Blood,0.02 %ID/g
same,tissue uptake at 168 h,[3]; Tissue biodistribution: Blood,0.02 ± 0.01 %ID/g
same,tissue uptake at 2 h,[3]; Tissue biodistribution: Bone,0.47 ± 0.09 %ID/g
same,tissue uptake at 6 h,[3]; Tissue biodistribution: Bone,0.26 ± 0.03 %ID/g
same,tissue uptake at 24 h,[3]; Tissue biodistribution: Bone,0.26 ± 0.04 %ID/g
same,tissue uptake at 72 h,[3]; Tissue biodistribution: Bone,0.34 ± 0.01 %ID/g
same,tissue uptake at 168 h,[3]; Tissue biodistribution: Bone,0.43 ± 0.1 %ID/g
same,tissue uptake at 2 h,[3]; Tissue biodistribution: Heart,0.57 ± 0.28 %ID/g
same,tissue uptake at 6 h,[3]; Tissue biodistribution: Heart,0.1 ± 0.01 %ID/g
same,tissue uptake at 24 h,[3]; Tissue biodistribution: Heart,0.07 %ID/g
same,tissue uptake at 72 h,[3]; Tissue biodistribution: Heart,0.07 ± 0.01 %ID/g
same,tissue uptake at 168 h,[3]; Tissue biodistribution: Heart,0.08 ± 0.01 %ID/g
same,tissue uptake at 2 h,[3]; Tissue biodistribution: Kidney,136 ± 16.7 %ID/g
same,tissue uptake at 6 h,[3]; Tissue biodistribution: Kidney,56.5 ± 18.9 %ID/g
same,tissue uptake at 24 h,[3]; Tissue biodistribution: Kidney,5.86 ± 1.87 %ID/g
same,tissue uptake at 72 h,[3]; Tissue biodistribution: Kidney,0.99 ± 0.04 %ID/g
same,tissue uptake at 168 h,[3]; Tissue biodistribution: Kidney,0.26 ± 0.01 %ID/g
same,tissue uptake at 2 h,[3]; Tissue biodistribution: Liver,0.34 ± 0.07 %ID/g
same,tissue uptake at 6 h,[3]; Tissue biodistribution: Liver,0.19 ± 0.03 %ID/g
same,tissue uptake at 24 h,[3]; Tissue biodistribution: Liver,0.18 ± 0.05 %ID/g
same,tissue uptake at 72 h,[3]; Tissue biodistribution: Liver,0.22 ± 0.01 %ID/g
same,tissue uptake at 168 h,[3]; Tissue biodistribution: Liver,0.23 ± 0.08 %ID/g
same,tissue uptake at 2 h,[3]; Tissue biodistribution: Lung,1.14 ± 0.31 %ID/g
same,tissue uptake at 6 h,[3]; Tissue biodistribution: Lung,0.32 ± 0.11 %ID/g
same,tissue uptake at 24 h,[3]; Tissue biodistribution: Lung,0.12 ± 0.02 %ID/g
same,tissue uptake at 72 h,[3]; Tissue biodistribution: Lung,0.09 ± 0.01 %ID/g
same,tissue uptake at 168 h,[3]; Tissue biodistribution: Lung,0.07 ± 0.02 %ID/g
same,tissue uptake at 2 h,[3]; Tissue biodistribution: Muscle,0.23 ± 0.03 %ID/g
same,tissue uptake at 6 h,[3]; Tissue biodistribution: Muscle,0.08 ± 0.01 %ID/g
same,tissue uptake at 24 h,[3]; Tissue biodistribution: Muscle,0.03 %ID/g
same,tissue uptake at 72 h,[3]; Tissue biodistribution: Muscle,0.02 %ID/g
same,tissue uptake at 168 h,[3]; Tissue biodistribution: Muscle,0.03 ± 0.01 %ID/g
same,tissue uptake at 2 h,[3]; [6],0.57 ± 0.19 %ID/g
same,tissue uptake at 6 h,[3]; [6],0.2 ± 0.07 %ID/g
same,tissue uptake at 24 h,[3]; [6],0.08 %ID/g
same,tissue uptake at 72 h,[3]; [6],0.09 ± 0.01 %ID/g
same,tissue uptake at 168 h,[3]; [6],0.06 ± 0.01 %ID/g
same,tissue uptake at 2 h,[3]; Tissue biodistribution: Spleen,6.44 ± 3.19 %ID/g
same,tissue uptake at 6 h,[3]; Tissue biodistribution: Spleen,0.88 ± 0.26 %ID/g
same,tissue uptake at 24 h,[3]; Tissue biodistribution: Spleen,0.28 ± 0.05 %ID/g
same,tissue uptake at 72 h,[3]; Tissue biodistribution: Spleen,0.35 ± 0.01 %ID/g
same,tissue uptake at 168 h,[3]; Tissue biodistribution: Spleen,0.39 ± 0.11 %ID/g
same,tissue uptake at 2 h,[3]; Tissue biodistribution: Tumor,19.7 ± 9.31 %ID/g
same,tissue uptake at 6 h,[3]; Tissue biodistribution: Tumor,18.8 ± 1.68 %ID/g
same,tissue uptake at 24 h,[3]; Tissue biodistribution: Tumor,22.7 ± 7.83 %ID/g
same,tissue uptake at 72 h,[3]; Tissue biodistribution: Tumor,24.3 ± 1.92 %ID/g
same,tissue uptake at 168 h,[3]; Tissue biodistribution: Tumor,11.9 ± 4.35 %ID/g
same,tissue to tissue ratio at 2 h,[3]; Tumor/Blood,62.7 ± 54.4
same,tissue to tissue ratio at 6 h,[3]; Tumor/Blood,277 ± 98.9
same,tissue to tissue ratio at 24 h,[3]; Tumor/Blood,754 ± 166
same,tissue to tissue ratio at 72 h,[3]; Tumor/Blood,1120 ± 40
same,tissue to tissue ratio at 168 h,[3]; Tumor/Blood,555 ± 353
same,tissue to tissue ratio at 2 h,[3]; Tumor/Bone,41.5 ± 19.5
same,tissue to tissue ratio at 6 h,[3]; Tumor/Bone,73.6 ± 6.68
same,tissue to tissue ratio at 24 h,[3]; Tumor/Bone,87.2 ± 16.1
same,tissue to tissue ratio at 72 h,[3]; Tumor/Bone,72.1 ± 4.85
same,tissue to tissue ratio at 168 h,[3]; Tumor/Bone,27.7 ± 7.2
same,tissue to tissue ratio at 2 h,[3]; Tumor/Kidney,0.15 ± 0.09
same,tissue to tissue ratio at 6 h,[3]; Tumor/Kidney,0.35 ± 0.11
same,tissue to tissue ratio at 24 h,[3]; Tumor/Kidney,3.97 ± 0.93
same,tissue to tissue ratio at 72 h,[3]; Tumor/Kidney,24.5 ± 2.46
same,tissue to tissue ratio at 168 h,[3]; Tumor/Kidney,45.6 ± 16.3
same,T/NT ratio Tumor/Blood,[4],497.77
same,T/NT ratio Tumor/Salivary Gland,[4],183.55
